In publication PMC10916433 (2023):

B1: GFP‐tagged wild‐type RAGE (AAV‐RAGE‐Wt) [mouse] / receptor‐interacting serine/threonine protein kinase 1 (RIPK1), endogenous [mouse (endogenous in BV2 cells and in mouse hippocampus)] (parent complex)
chain 1: GQNITARIGEPLVLSCKGAPKKPPQQLEWKLNTGRTEAWKVLSPQGGPWDSVARILPNGSLLLPATGIVDEGTFRCRATNRRGKEVKSNYRVRVYQIPGKPEIVDPASELTASVPNKVGTCVSEGSYPAGTLSWHLDGKLLIPDGKETLVKEETRRHPETGLFTLRSELTVIPTQGGTHPTFSCSFSLGLPRRRPLNTAPIQLRVREPGPPEGIQLLVEPEGGIVAPGGTVTLTCAISAQPPPQVHWIKDGAPLPLAPSPVLLLPEVGHEDEGTYSCVATHPSHGPQESPPVSIRVTETGDEGPAEGSVGESGLGTLALALGILGGLGVVALLVGAILWRKRQPRREERKAPESQEDEEERAELNQSEEAEMPENGAGGP
chain 2: MQPDMSLDNIKMASSDLLEKTDLDSGGFGKVSLCYHRSHGFVILKKVYTGPNRAEYNEVLLEEGKMMHRLRHSRVVKLLGIIIEEGNYSLVMEYMEKGNLMHVLKTQIDVPLSLKGRIIVEAIEGMCYLHDKGVIHKDLKPENILVDRDFHIKIADLGVASFKTWSKLTKEKDNKQKEVSSTTKKNNGGTLYYMAPEHLNDINAKPTEKSDVYSFGIVLWAIFAKKEPYENVICTEQFVICIKSGNRPNVEEILEYCPREIISLMERCWQAIPEDRPTFLGIEEEFRPFYLSHFEEYVEEDVASLKKEYPDQSPVLQRMFSLQHDCVPLPPSRSNSEQPGSLHSSQGLQMGPVEESWFSSSPEYPQDENDRSVQAKLQEEASYHAFGIFAEKQTKPQPRQNEAYNREEERKRRVSHDPFAQQRARENIKSAGARGHSDPSTTSRGIAVQQLSWPATQTVWNNGLYNQHGFGTTGTGVWYPPNLSQMYSTYKTPVPETNIPGSTPTMPYFSGPVADDLIKYTIFNSSGIQIGNHNYMDVGLNSQPPNNTCKEESTSRHQAIFDNTTSLTDEHLNPIRENLGRQWKNCARKLGFTESQIDEIDHDYERDGLKEKVYQMLQKWLMREGTKGATVGKLAQALHQCCRIDLLNHLIRASQS

Variants of: B1
Assay: co-immunoprecipitation (IP: RIPK1, IB: RAGE), optical density of blot; hippocampus of db/db + RAGE-KD mice injected with AAV-RAGE-Wt or AAV-RAGE-Mut; n = 4; mean ± S.D; parent: 1.9; read off a plot

Row | Variant | response
1 | chain 1 GQNITARIGEPLVLSCKGAPKKPPQQLEWKLNTGRTEAWKVLSPQGGPWDSVARILPNGSLLLPATGIVDEGTFRCRATNRRGKEVKSNYRVRVYQIPGKPEIVDPASELTASVPNKVGTCVSEGSYPAGTLSWHLDGKLLIPDGKETLVKEETRRHPETGLFTLRSELTVIPTQGGTHPTFSCSFSLGLPRRRPLNTAPIQLRVREPGPPEGIQLLVEPEGGIVAPGGTVTLTCAISAQPPPQVHWIKDGAPLPLAPSPVLLLPEVGHEDEGTYSCVATHPSHGPQESPPVSIRVTETGDEGPAEGSVGESGLGTLALALGILGGLGVVALLVGAILWAAAAAAREERKAPESQEDEEERAELNQSEEAEMPENGAGGP [chain 1 R340A, chain 1 K341A, chain 1 R342A, chain 1 Q343A, chain 1 P344A, chain 1 R345A] | ~1 fold change to the db/db + RAGE-KD group

Variants of: B1
Assay: co-immunoprecipitation (IP: RAGE, IB: RIPK1), optical density of blot; hippocampus of db/db + RAGE-KD mice injected with AAV-RAGE-Wt or AAV-RAGE-Mut; n = 4; mean ± S.D; parent: 2.7; read off a plot

Row | Variant | response
2 | chain 1 GQNITARIGEPLVLSCKGAPKKPPQQLEWKLNTGRTEAWKVLSPQGGPWDSVARILPNGSLLLPATGIVDEGTFRCRATNRRGKEVKSNYRVRVYQIPGKPEIVDPASELTASVPNKVGTCVSEGSYPAGTLSWHLDGKLLIPDGKETLVKEETRRHPETGLFTLRSELTVIPTQGGTHPTFSCSFSLGLPRRRPLNTAPIQLRVREPGPPEGIQLLVEPEGGIVAPGGTVTLTCAISAQPPPQVHWIKDGAPLPLAPSPVLLLPEVGHEDEGTYSCVATHPSHGPQESPPVSIRVTETGDEGPAEGSVGESGLGTLALALGILGGLGVVALLVGAILWAAAAAAREERKAPESQEDEEERAELNQSEEAEMPENGAGGP [chain 1 R340A, chain 1 K341A, chain 1 R342A, chain 1 Q343A, chain 1 P344A, chain 1 R345A] | ~0.95 fold change to the db/db + RAGE-KD group
